Biological target: Protease Mixtures
Assay: cell-based or functional assay

Protease Inhibition (% of WT); Protease Mixtures, IGD Substrate: 237 % of WT
B1: Variant A2M, bait region SEQ ID NO 124, P01023 24-1474 (protein)
chain: SVSGKPQYMVLVPSLLHTETTEKGCVLLSYLNETVTVSASLESVRGNRSLFTDLEAENDVLHCVAFAVPKSSSNEEVMFLTVQVKGPTQEFKKRTTVMVKNEDSLVFVQTDKSIYKPGQTVKFRVVSMDENFHPLNELIPLVYIQDPKGNRIAQWQSFQLEGGLKQFSFPLSSEPFQGSYKVVVQKKSGGRTEHPFTVEEFVLPKFEVQVTVPKIITILEEEMNVSVCGLYTYGKPVPGHVTVSICRKYSDASDCHGEDSQAFCEKFSGQLNSHGCFYQQVKTKVFQLKRKEYEMKLHTEAQIQEEGTVVELTGRQSSEITRTITKLSFVKVDSHFRQGIPFFGQVRLVDGKGVPIPNKVIFIRGNEANYYSNATTDEHGLVQFSINTTNVMGTSLTVRVNYKDRSPCYGYQWVSEEHEEAHHTAYLVFSPSKSFVHLEPMSHELPCGHTQTVQAHYILNGGTLLGLKKLSFYYLIMAKGGIVRTGTHGLLVKQEDMKGHFSISIPVKSDIAPVARLLIYAVLPTGDVIGDSAKYDVENCLANKVDLSFSPSQSLPASHAHLRVTAAPQSVCALRAVDQSVLLMKPDAELSASSVYNLLPEKDLTGFPGPLNDQDDEDCINRHNVYINGITYTPVSSTNEKDMYSFLEDMGLKAFTNSKIRKPKMCPQLEQYEMHGPKEEEGLGSSELEGRGSEAIPMSIPTIPENFFGVVEEPHTKLRKYFPETWIWDLVVVNSAGVAEVGVTVPDTITEWKAGAFCLSEDAGLGISSTASLRAFQPFFVELTMPYSVIRGEAFTLKATVLNYLPKCIRVSVQLEASPAFLAVPVEKEQAPHCICANGRQTVSWAVTPKSLGNVNFTVSAEALESQELCGTEVPSVPEHGRKDTVIKPLLVEPEGLEKETTFNSLLCPSGGEVSEELSLKLPPNVVEESARASVSVLGDILGSAMQNTQNLLQMPYGCGEQNMVLFAPNIYVLDYLNETQQLTPEIKSKAIGYLNTGYQRQLNYKHYDGSYSTFGERYGRNQGNTWLTAFVLKTFAQARAYIFIDEAHITQALIWLSQRQKDNGCFRSSGSLLNNAIKGGVEDEVTLSAYITIALLEIPLTVTHPVVRNALFCLESAWKTAQEGDHGSHVYTKALLAYAFALAGNQDKRKEVLKSLNEEAVKKDNSVHWERPQKPKAPVGHFYEPQAPSAEVEMTSYVLLAYLTAQPAPTSEDLTSATNIVKWITKQQNAQGGFSSTQDTVVALHALSKYGAATFTRTGKAAQVTIQSSGTFSSKFQVDNNNRLLLQQVSLPELPGEYSMKVTGEGCVYLQTSLKYNILPEKEEFPFALGVQTLPQTCDEPKAHTSFQISLSVSYTGSRSASNMAIVDVKMVSGFIPLKPTVKMLERSNHVSRTEVSSNHVLIYLDKVSNQTLSLFFTVLQDVPVRDLKPAIVKVYDYYETDEFAIAEYNAPCSKDLGNADYKDDDDKGASHHHHHH

Reference: patent publication US20230250154A1
